{"source": "patent US20210180049A1", "about": "(CHUGAI SEIYAKU KABUSHIKI KAISHA, priority 2013, published 2021)", "molecules": {"B1": {"name": "6RNMSC1-2_F02: antibody binding hIL-6R in the presence of kynurenine; heavy chain SEQ ID NO: 32, light chain SEQ ID NO: 33 (antibody, listed as Homo sapiens, V domains shown)", "VH": "QVQLVQSGAEVKKPGSSVKVSCKASGGTFSSYAISWVRQAPGQGLEWMGGIIPIFGTANYAQKFQGRVTITADESTSTAYMELSSLRSEDTAVYYCARDAPVVARPRGAFDIWGQGTMVTVSS", "VL": "DIVMTQTPLSSPVTLGQPASISCRSSQSLVHSDGNTYLSWLQQRPGQPPRLLIHEISNRFSGVPDRFSGSGAGTNFTLKISRVEAEDVGVYYCMQATQFPRTFGQGTKVEIK"}}, "key": {"[1]": {"target": "T1, hIL-6R (Homo sapiens, UniProt P08887)", "T1 sequence (P08887 20-357)": "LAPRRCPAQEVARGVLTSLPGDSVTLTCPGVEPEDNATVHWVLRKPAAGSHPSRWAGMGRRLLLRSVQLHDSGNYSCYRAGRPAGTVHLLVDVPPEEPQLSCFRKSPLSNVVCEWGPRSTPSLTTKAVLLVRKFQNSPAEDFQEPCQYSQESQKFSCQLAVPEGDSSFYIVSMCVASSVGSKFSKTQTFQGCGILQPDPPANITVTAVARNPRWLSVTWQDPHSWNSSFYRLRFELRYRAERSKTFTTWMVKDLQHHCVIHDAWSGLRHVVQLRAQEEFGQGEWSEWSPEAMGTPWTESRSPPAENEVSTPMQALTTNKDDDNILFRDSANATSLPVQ", "format": "binding", "conditions": "Octet", "method": "Octet ([…]) was used to assess the effect of various small molecules on the antigen-antibody reaction between hIL-6R and the kynurenine-switch antibody 6RNMSC1-2_F02 obtained from a library. A total of eight molecules shown in Example (7-5), which are kynurenine and derivatives thereof, were evaluated as small molecules. The assay buffer used was TBS, pH 7.4, and measurements were carried out at 30° C. Biotinylated hIL-6R was immobilized onto a streptavidin sensor chip, the antibody was allowed to interact, and changes in the amount of its binding were observed. The antibody was diluted using the assay buffer or the assay buffer to which either one of the small molecules has been added. The final concentration of each small molecule was adjusted to 100 uM, while the final antibody concentration was adjusted to 10 μg/mL."}, "[2]": {"target": "T2, human IL-6 receptor (hIL-6R) (Homo sapiens, UniProt P08887)", "T2 sequence (P08887 20-357)": "T1 sequence (P08887 20-357)", "experiment": "IgG ELISA for hIL-6R binding in the presence of amino acids and amino acid metabolites (Table 14)", "conditions": "IgG 2.5 μg/mL", "method": "Meanwhile, each of the amino acids and metabolites thereof were appropriately prepared at the concentrations shown in Table 14 using the buffers shown in Table 13. The antigen used was biotin-labeled hIL-6R.\nFirst, a StreptaWell 96 microtiter plate (Roche) was coated with 100 μL of PBS containing biotin-labeled antigens at room temperature for one hour or longer. […] 100 μL of each of the purified IgGs prepared at 2.5 μg/mL using Sample Buffer containing small molecules at the final concentrations shown in Table 14 were added to each well, and the plate was let still at room temperature for one hour to allow each IgG to bind to the antigen present in each well. After washing with Wash Buffer containing amino acids and amino acid metabolites at the final concentrations shown in Table 14, HRP-conjugated anti-human IgG antibody (BIOSOURCE) diluted with Sample Buffer containing amino acids and amino acid metabolites was added to each well, and the plate was incubated for one hour. After washing with Wash Buffer containing the respective amino acids and amino acid metabolites, the chromogenic reaction of TMB single solution (ZYMED) added in each well was terminated by adding sulfuric acid. Then, the color development was measured by absorbance at 450 nm."}}, "data": [{"molecule": "B1", "values": [{"measurement": "hIL-6R binding in the presence of 3-hydroxy-DL-kynurenine", "setting": "[1]; 100 uM small molecule", "result": "binding to hIL-6R was observed"}, {"measurement": "hIL-6R binding in the presence of RO0635389-000-001", "setting": "[1]; 100 uM small molecule", "result": "binding to hIL-6R was observed"}, {"measurement": "hIL-6R binding in the presence of RO0635390-000-001", "setting": "[1]; 100 uM small molecule", "result": "binding to hIL-6R was observed"}, {"measurement": "hIL-6R binding in the absence of kynurenine", "setting": "[1]; 30° C., antibody 10 μg/mL", "result": "not observed"}, {"measurement": "hIL-6R binding in the presence of 100 uM kynurenine", "setting": "[1]; 30° C., antibody 10 μg/mL", "result": "bound to hIL-6R"}, {"measurement": "absorbance under condition 5 (3-hydroxy kynurenine solution)", "setting": "[2]; 3-Hydroxykynurenine 1 mM", "result": "high absorbance similarly to that under condition 1"}, {"measurement": "absorbance under condition 7 (no small molecule) compared to condition 1 (kynurenine solution)", "setting": "[2]", "result": "significantly lower"}, {"measurement": "hIL-6R binding in the presence of tryptophan", "setting": "[2]; Tryptophan 1 mM", "result": "does not bind to the antigen hIL-6R"}]}]}
